One molecule from EP4707390A1 (PeptiDream Inc., dated 2026) can be followed below.

The target in this experiment is T1, Recombinant human IgG1 Fc protein (110-HG, R&D Systems) (human, UniProt P01857-1 100-330 = IgG part).
T1 construct: domain: Fc; Bought protein; also called human IgG Fc protein; biotinylated Fc
Briefly: display assay, conjugates on linker 1 or 3, biotinylated Fc on streptavidin magnetic beads against beads without Fc, real-time PCR. On the technique in general: Real-time PCR tracks product formation cycle by cycle.

B1: Fc-binding peptide encoded by the translation region of SEQ ID NO: 26 (peptide)
peptide: MPDCAYHKGELVWCTGGGGSS
modifications: C-terminus covalently bonded to the puromycin of the linker; sample treated with oxidized glutathione after reverse transcription
notes: Tested as an mRNA/cDNA-linker-peptide conjugate on monovalent linker 1 or divalent linker 3
For the molecule B1, the binding result was “binds”.
